From patent US20090197805A1, “Insulin receptor antagonists and related compositions, uses and methods” (Novo Nordisk A/S, priority 2005, published 2009)
Ends that are not written are not given here.

Experiments:
IGF1 receptor = assay: competition binding assay with 125I-labeled IGF1 on the IGF1 receptor; reference IGF1
insulin receptor = assay: competition binding assay with 125I-labeled insulin on the insulin receptor; reference human insulin

- fold lower affinity than IGF1 (IGF1 receptor): 200000 fold
- affinity relative to human insulin (insulin receptor): 48%
Binder: GSLDESFYDWFERQLGGGSGGSSLEEEWAQIQCEVWGRGCPSY-NH2 (cysteine pairing not given here) [PIRA S661 (…-amide)]
